Measurements published in patent US20170190753A1 (LABORATOIRE FRANCAIS DU FRACTIONNEMENT ET DES …, published 2017).
Blank lines part the entries; values can stand above or below the binder they belong to.

Target: C3 convertase complex (UniProt P01024 23-1663; P00751 260-764)
Experiment: cell-based or functional assay
Throughout, for C3 convertase activity % of the control: test concentration or dose not given here.

C3 convertase complex, sequence (P01024 23-1663, chain 1 of 2): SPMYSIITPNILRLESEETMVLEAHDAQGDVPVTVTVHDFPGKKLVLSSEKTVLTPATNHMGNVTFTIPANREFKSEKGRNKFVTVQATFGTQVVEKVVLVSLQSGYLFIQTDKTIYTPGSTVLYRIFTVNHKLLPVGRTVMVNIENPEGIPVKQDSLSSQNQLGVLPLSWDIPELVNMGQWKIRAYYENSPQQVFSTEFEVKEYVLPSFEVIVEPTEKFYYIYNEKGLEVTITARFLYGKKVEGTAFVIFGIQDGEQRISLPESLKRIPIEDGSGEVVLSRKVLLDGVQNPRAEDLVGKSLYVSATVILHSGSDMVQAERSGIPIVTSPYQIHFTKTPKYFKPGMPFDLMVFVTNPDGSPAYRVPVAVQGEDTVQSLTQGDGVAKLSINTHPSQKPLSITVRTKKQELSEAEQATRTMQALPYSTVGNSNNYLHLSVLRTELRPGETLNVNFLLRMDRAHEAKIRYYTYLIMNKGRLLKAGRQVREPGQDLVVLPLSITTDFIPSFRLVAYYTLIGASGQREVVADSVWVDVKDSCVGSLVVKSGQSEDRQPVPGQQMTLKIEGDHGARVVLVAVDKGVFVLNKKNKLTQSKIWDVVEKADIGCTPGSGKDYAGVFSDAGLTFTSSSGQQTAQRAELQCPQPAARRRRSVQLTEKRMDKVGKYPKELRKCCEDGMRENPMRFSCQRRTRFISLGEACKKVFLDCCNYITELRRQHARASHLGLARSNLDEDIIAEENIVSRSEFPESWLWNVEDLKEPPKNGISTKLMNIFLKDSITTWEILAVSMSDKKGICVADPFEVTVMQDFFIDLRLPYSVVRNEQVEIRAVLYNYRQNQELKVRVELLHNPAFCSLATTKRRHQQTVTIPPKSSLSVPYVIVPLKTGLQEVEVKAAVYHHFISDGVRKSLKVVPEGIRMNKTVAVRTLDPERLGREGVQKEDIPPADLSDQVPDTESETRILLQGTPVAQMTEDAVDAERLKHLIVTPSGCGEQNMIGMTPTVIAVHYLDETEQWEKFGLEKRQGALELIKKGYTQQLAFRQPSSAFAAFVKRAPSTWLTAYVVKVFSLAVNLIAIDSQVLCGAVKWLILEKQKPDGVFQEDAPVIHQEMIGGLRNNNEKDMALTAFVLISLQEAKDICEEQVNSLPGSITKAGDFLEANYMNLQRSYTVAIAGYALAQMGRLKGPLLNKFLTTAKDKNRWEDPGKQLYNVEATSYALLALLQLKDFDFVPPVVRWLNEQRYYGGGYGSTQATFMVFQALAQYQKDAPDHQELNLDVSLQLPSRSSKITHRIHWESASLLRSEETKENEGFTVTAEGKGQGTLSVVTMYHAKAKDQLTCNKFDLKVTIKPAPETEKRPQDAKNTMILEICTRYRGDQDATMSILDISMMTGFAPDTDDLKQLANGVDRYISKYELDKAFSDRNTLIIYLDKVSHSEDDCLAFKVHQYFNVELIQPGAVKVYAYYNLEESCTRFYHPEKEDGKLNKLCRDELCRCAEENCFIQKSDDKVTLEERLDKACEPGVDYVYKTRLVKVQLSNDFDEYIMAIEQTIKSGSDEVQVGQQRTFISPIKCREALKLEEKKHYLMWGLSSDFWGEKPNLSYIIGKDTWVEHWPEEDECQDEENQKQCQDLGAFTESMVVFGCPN
C3 convertase complex, sequence (P00751 260-764, chain 2 of 2): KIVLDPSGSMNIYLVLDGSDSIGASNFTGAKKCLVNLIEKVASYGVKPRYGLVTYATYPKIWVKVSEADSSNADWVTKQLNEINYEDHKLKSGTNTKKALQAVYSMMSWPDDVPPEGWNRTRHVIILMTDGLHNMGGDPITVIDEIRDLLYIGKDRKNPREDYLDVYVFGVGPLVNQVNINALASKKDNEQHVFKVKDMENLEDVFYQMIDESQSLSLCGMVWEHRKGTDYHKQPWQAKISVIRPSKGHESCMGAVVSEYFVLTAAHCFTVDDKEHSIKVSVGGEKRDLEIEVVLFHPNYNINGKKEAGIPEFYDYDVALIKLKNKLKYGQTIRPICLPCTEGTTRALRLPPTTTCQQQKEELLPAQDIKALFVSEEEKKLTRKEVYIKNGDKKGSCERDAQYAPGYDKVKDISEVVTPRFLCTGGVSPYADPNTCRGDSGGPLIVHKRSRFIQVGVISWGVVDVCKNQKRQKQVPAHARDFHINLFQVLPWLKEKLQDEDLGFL

B1: pCEP4-1NT8-12CT20 (other)
chain: EDCNELPPRRNTEILTGSWSDQTYPEGTQAIYKCRPGYRSLGNVIMVCRKGEWVALNPLRKCQKRPCGHPGDTPFGTFTLTGGNVFEYGVKAVYTCNEGYQLLGEINYRECDTDGWTNDIPICEVVKCLPVTAPENGKIVSSAMEPDREYHFGQAVRFVCNSGYKIEGDEEMHCSDDGFWSKEKPKCVEISCKSPDVINGSPISQKIIYKENERFQYKCNMGYEYSERGDAVCTESGWRPLPSCEEKSCDNPYIPNGDYSPLRIKHRTGDEITYQCRNGFYPATRGNTAKCTSTGWIPAPRCTLKPCDYPDIKHGGLYHENMRRPYFPVAVGKYYSYYCDEHFETPSGSYWDHIHCTQDGWSPAVPCLRKCYFPYLENGYNQNYGRKFVQGKSIDVACHPGYALPKAQTTVTCMENGWSPTPRCIRVKTCSKSSIDIENGFISESQYTYALKEKAKYQCKLGYVTADGETSGSITCGKDGWSAQPTCIKSGASGCGDIPELEHGWAQLSSPPYYYGDSVEFNCSESFTMIGHRSITCIHGVWTQLPQCVAIDKLKKCKSSNLIILEEHLKNKKEFDHNSNIRYRCRGKEGWIHTVCINGRWDPEVNCSMAQIQLCPPPPQIPNSHNMTTTLNYRDGEKVSVLCQENYLIQEGEEITCKDGRWQSIPLCVEKIPCSQPPQIEHGTINSSRSSQESYAHGTKLSYTCEGGFRISEENETTCYMGKWSSPPQCEGLPCKSPPEISHGVVAHMSDSYQYGEEVTYKCFEGFGIDGPAIAKCLGEKWSHPPSCIKTDCLSLPSFENAIPMGEKKDVYKAGEQVTYTCATYYKMDGASNVTCINSRWTGRPTCRDTSCVNPPTVQNAYIVSRQMSKYPSGERVRYQCRSPYEMFGDEEVMCLNGNWTEPPQCKDSTGKCGPPPPIDNGDITSFPLSVYAPASSVEYQCQNLYQLEGNKRITCRNGQWSEPPKCLHPCVISREIMENYNIALRWTAKQKLYSRTGESVEFVCKRGYRLSSRSHTLRTTCWDGKLEYPTCAKRGGSGHHHHHH
C3 convertase activity % of the control: 4 % of the control
C3 convertase activity IC50: 1.87 µg/mL

B2: pCEP4-1NT10-19CT20 (other)
chain: EDCNELPPRRNTEILTGSWSDQTYPEGTQAIYKCRPGYRSLGNVIMVCRKGEWVALNPLRKCQKRPCGHPGDTPFGTFTLTGGNVFEYGVKAVYTCNEGYQLLGEINYRECDTDGWTNDIPICEVVKCLPVTAPENGKIVSSAMEPDREYHFGQAVRFVCNSGYKIEGDEEMHCSDDGFWSKEKPKCVEISCKSPDVINGSPISQKIIYKENERFQYKCNMGYEYSERGDAVCTESGWRPLPSCEEKSCDNPYIPNGDYSPLRIKHRTGDEITYQCRNGFYPATRGNTAKCTSTGWIPAPRCTLKPCDYPDIKHGGLYHENMRRPYFPVAVGKYYSYYCDEHFETPSGSYWDHIHCTQDGWSPAVPCLRKCYFPYLENGYNQNHGRKFVQGKSIDVACHPGYALPKAQTTVTCMENGWSPTPRCIRVKTCSKSSIDIENGFISESQYTYALKEKAKYQCKLGYVTADGETSGSITCGKDGWSAQPTCIKSCDIPVFMNARTKNDFTWFKLNDTLDYECHDGYESNTGSTTGSIVCGYNGWSDLPICYERECELPKIDVHLVPDRKKDQYKVGEVLKFSCKPGFTIVGPNSVQCYHFGLSPDLPICKEQVQSGASGCGPPPPIDNGDITSFPLSVYAPASSVEYQCQNLYQLEGNKRITCRNGQWSEPPKCLHPCVISREIMENYNIALRWTAKQKLYSRTGESVEFVCKRGYRLSSRSHTLRTTCWDGKLEYPTCAKRGGSGHHHHHH
C3 convertase activity % of the control: 1 % of the control
C3 convertase activity IC50: 6.05 µg/mL

B5: pCEP4-1NT8-19CT20 (other)
chain: EDCNELPPRRNTEILTGSWSDQTYPEGTQAIYKCRPGYRSLGNVIMVCRKGEWVALNPLRKCQKRPCGHPGDTPFGTFTLTGGNVFEYGVKAVYTCNEGYQLLGEINYRECDTDGWTNDIPICEVVKCLPVTAPENGKIVSSAMEPDREYHFGQAVRFVCNSGYKIEGDEEMHCSDDGFWSKEKPKCVEISCKSPDVINGSPISQKIIYKENERFQYKCNMGYEYSERGDAVCTESGWRPLPSCEEKSCDNPYIPNGDYSPLRIKHRTGDEITYQCRNGFYPATRGNTAKCTSTGWIPAPRCTLKPCDYPDIKHGGLYHENMRRPYFPVAVGKYYSYYCDEHFETPSGSYWDHIHCTQDGWSPAVPCLRKCYFPYLENGYNQNYGRKFVQGKSIDVACHPGYALPKAQTTVTCMENGWSPTPRCIRVKTCSKSSIDIENGFISESQYTYALKEKAKYQCKLGYVTADGETSGSITCGKDGWSAQPTCIKSGASGCGPPPPIDNGDITSFPLSVYAPASSVEYQCQNLYQLEGNKRITCRNGQWSEPPKCLHPCVISREIMENYNIALRWTAKQKLYSRTGESVEFVCKRGYRLSSRSHTLRTTCWDGKLEYPTCAKRGGSGHHHHHH
C3 convertase activity % of the control: 0 % of the control
C3 convertase activity IC50: 493 µg/mL

Second part, the binder after the results:

C3 convertase activity % of the control: 5 % of the control
C3 convertase activity IC50: 2.19 µg/mL
B3: pCEP4-1NT9-15CT20 (other)
chain: EDCNELPPRRNTEILTGSWSDQTYPEGTQAIYKCRPGYRSLGNVIMVCRKGEWVALNPLRKCQKRPCGHPGDTPFGTFTLTGGNVFEYGVKAVYTCNEGYQLLGEINYRECDTDGWTNDIPICEVVKCLPVTAPENGKIVSSAMEPDREYHFGQAVRFVCNSGYKIEGDEEMHCSDDGFWSKEKPKCVEISCKSPDVINGSPISQKIIYKENERFQYKCNMGYEYSERGDAVCTESGWRPLPSCEEKSCDNPYIPNGDYSPLRIKHRTGDEITYQCRNGFYPATRGNTAKCTSTGWIPAPRCTLKPCDYPDIKHGGLYHENMRRPYFPVAVGKYYSYYCDEHFETPSGSYWDHIHCTQDGWSPAVPCLRKCYFPYLENGYNQNYGRKFVQGKSIDVACHPGYALPKAQTTVTCMENGWSPTPRCIRVKTCSKSSIDIENGFISESQYTYALKEKAKYQCKLGYVTADGETSGSITCGKDGWSAQPTCIKSCDIPVFMNARTKNDFTWFKLNDTLDYECHDGYESNTGSTTGSIVCGYNGWSDLPICYEREGASGCSQPPQIEHGTINSSRSSQESYAHGTKLSYTCEGGFRISEENETTCYMGKWSSPPQCEGLPCKSPPEISHGVVAHMSDSYQYGEEVTYKCFEGFGIDGPAIAKCLGEKWSHPPSCIKTDCLSLPSFENAIPMGEKKDVYKAGEQVTYTCATYYKMDGASNVTCINSRWTGRPTCRDTSCVNPPTVQNAYIVSRQMSKYPSGERVRYQCRSPYEMFGDEEVMCLNGNWTEPPQCKDSTGKCGPPPPIDNGDITSFPLSVYAPASSVEYQCQNLYQLEGNKRITCRNGQWSEPPKCLHPCVISREIMENYNIALRWTAKQKLYSRTGESVEFVCKRGYRLSSRSHTLRTTCWDGKLEYPTCAKRGGSGHHHHHH

C3 convertase activity % of the control: 5 % of the control
C3 convertase activity IC50: 1.78 µg/mL
B4: pCEP4-1NT11-19CT20 (other)
chain: EDCNELPPRRNTEILTGSWSDQTYPEGTQAIYKCRPGYRSLGNVIMVCRKGEWVALNPLRKCQKRPCGHPGDTPFGTFTLTGGNVFEYGVKAVYTCNEGYQLLGEINYRECDTDGWTNDIPICEVVKCLPVTAPENGKIVSSAMEPDREYHFGQAVRFVCNSGYKIEGDEEMHCSDDGFWSKEKPKCVEISCKSPDVINGSPISQKIIYKENERFQYKCNMGYEYSERGDAVCTESGWRPLPSCEEKSCDNPYIPNGDYSPLRIKHRTGDEITYQCRNGFYPATRGNTAKCTSTGWIPAPRCTLKPCDYPDIKHGGLYHENMRRPYFPVAVGKYYSYYCDEHFETPSGSYWDHIHCTQDGWSPAVPCLRKCYFPYLENGYNQNHGRKFVQGKSIDVACHPGYALPKAQTTVTCMENGWSPTPRCIRVKTCSKSSIDIENGFISESQYTYALKEKAKYQCKLGYVTADGETSGSITCGKDGWSAQPTCIKSCDIPVFMNARTKNDFTWFKLNDTLDYECHDGYESNTGSTTGSIVCGYNGWSDLPICYERECELPKIDVHLVPDRKKDQYKVGEVLKFSCKPGFTIVGPNSVQCYHFGLSPDLPICKEQVQSCGPPPELLNGNVKEKTKEEYGHSEVVEYYCNPRFLMKGPNKIQCVDGEWTTLPVCIVEESTGASGCGPPPPIDNGDITSFPLSVYAPASSVEYQCQNLYQLEGNKRITCRNGQWSEPPKCLHPCVISREIMENYNIALRWTAKQKLYSRTGESVEFVCKRGYRLSSRSHTLRTTCWDGKLEYPTCAKRGGSGHHHHHH
